Values joined by “and” are separate entries in the source; they are usually repeats but may differ in a detail not shown here. Equal values may be shown once.
Experiments:
[1] = target: T1, Human ANGPT2 Dimer (CC-FLD) (human, UniProt O15123 74-496, limits assumed); experiment: flow cytometry blocking assay: antibody titrated against His-tagged human ANGPT2 dimer (CC-FLD) binding to HEK293 human Tie2 cells
T1 construct: domain: CC-FLD; also called ANGPT2 protein with His-tag; not shown: His-tag
T1 sequence (looked up): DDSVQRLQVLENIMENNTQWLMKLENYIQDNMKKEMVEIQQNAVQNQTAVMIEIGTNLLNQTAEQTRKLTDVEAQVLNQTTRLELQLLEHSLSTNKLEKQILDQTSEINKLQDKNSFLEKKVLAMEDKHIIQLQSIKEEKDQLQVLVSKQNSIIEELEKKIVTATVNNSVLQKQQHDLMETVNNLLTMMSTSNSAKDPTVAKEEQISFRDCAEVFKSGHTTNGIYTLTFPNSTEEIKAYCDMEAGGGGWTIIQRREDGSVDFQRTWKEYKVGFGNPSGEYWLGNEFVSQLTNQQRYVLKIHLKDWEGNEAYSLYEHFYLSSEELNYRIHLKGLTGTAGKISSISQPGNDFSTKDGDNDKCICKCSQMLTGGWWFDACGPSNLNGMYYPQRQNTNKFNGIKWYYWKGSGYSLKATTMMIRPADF
Method: Human ANGPT2 Dimer (CC-FLD) is pre-incubated with the testing antibodies. The ANGPT2/Antibody mixture is then incubated with HEK293 human Tie2 cells at 4° C. After washing, the cells are stained with anti-His-AF647 (from GenScript) for detection of the His-tag on the ANGPT2 protein. The binding of the secondarily labelled ANGPT2 to human Tie2 cells is detected by FLOW cytometry. The average of the duplicate values for each concentration point is used to derive the curve fit graphs. Antibodies that prevent ANGPT2 from binding to the Tie2 cells are considered blocking antibodies. The results are shown in FIGS. 3A-3G and the EC50 values are shown in Table 5 based on the average of duplicate values.

[2] = target: T2, cynomolgus (cyno) ANGPT2 (cynomolgus, UniProt A0A2K5VNX6 275-496); experiment: SPR (ProteOn XPR36), antibody captured on Protein A/G, ANGPT2 as analyte, 1:1 Langmuir fit
T2 construct: domain: FLD domain; also called cyno ANGPT2 FLD domain
T2 sequence: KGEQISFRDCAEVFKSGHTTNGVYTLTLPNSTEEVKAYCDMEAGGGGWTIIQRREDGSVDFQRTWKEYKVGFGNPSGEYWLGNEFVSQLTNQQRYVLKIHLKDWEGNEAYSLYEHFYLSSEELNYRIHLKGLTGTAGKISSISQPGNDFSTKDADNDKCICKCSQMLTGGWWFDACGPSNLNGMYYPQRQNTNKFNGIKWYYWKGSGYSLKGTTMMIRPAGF
Method: (§1) The binding affinity to the various ANGPT2 analytes is determined by surface plasmon resonance (SPR) using a ProteOn XPR36 (Bio-Rad). Unless otherwise stated, all reagents are obtained from Bio-Rad. The running buffer for all assays and dilutions (except where stated) is phosphate buffered saline (PBS)/ethylenediamine tetraacetic acid (EDTA) with 0.01% Tween20 (PBS-T-EDTA). PBS-T-EDTA is prepared by adding 100 μl of 100% Tween20 to 2 L of PBS-T-EDTA with an initial concentration of 0.005% Tween20 to make a final Tween20 concentration of 0.01%. The general linearized model (GLM) sensorchip is normalized, pre-conditioned, and activated with an equal mixture of 1-ethyl-3-[3-dimethylaminopropyl]carbodiimide (EDC)/N-hydroxysulfosuccinimide (s-NHS) in the horizontal direction for 300 sec at a flow rate of 30 μl/min. Immobilization is then is done with Recombinant Protein A/G (Thermo Scientific) (60 μg/ml in 10 mM acetate pH 4.5) in the horizontal direction for 300 sec at a flowrate of 30 μl/min resulting in about 4370-4875 response units (RUs) of Protein A/G on the surface. The sensorchip is then deactivated with 1M ethanolamine HCl in the horizontal direction for 300 sec at a flowrate of 30 μl/min. The sensorchip is stabilized with 18 sec of 0.85% phosphoric acid at a flowrate of 100 μl/min 3 times horizontally and 3 times vertically.
(§2) Each ANGPT2 antibody is captured on the Protein A/G surface vertically for 300 sec at a flowrate of 30 μl/min resulting in a capture level of about 2500 RU. The baseline is stabilized by injecting PBS-T-EDTA for 60 sec at a flowrate of 100 μl/min horizontally with dissociation of 120 sec. The analyte (e.g., HuANGPT2) is injected horizontally over the captured antibody for 300 sec at a flowrate of 30 μl/min and a dissociation for 1800 sec. […] The surface is regenerated by injecting 0.85% phosphoric acid for 18 sec at a flowrate of 100 μl/min one time horizontally and one time vertically. PBS-T-EDTA is injected for 60 sec at a flowrate of 100 μl/min one time vertically and one time horizontally.
(§3) The interspot (interactions with sensor surface) and blank (PBS-T-EDTA with 0.01% Tween20 or 0 nM of analyte (here HuANGPT2)) are subtracted from the raw data.

[3] = target: T3, human ANGPT2 (SPR analyte) (human, UniProt O15123 275-496, limits assumed); experiment: as above
T3 construct: domain: FLD domain; also called HuANGPT2; human ANGPT2 FLD domain
T3 sequence (looked up): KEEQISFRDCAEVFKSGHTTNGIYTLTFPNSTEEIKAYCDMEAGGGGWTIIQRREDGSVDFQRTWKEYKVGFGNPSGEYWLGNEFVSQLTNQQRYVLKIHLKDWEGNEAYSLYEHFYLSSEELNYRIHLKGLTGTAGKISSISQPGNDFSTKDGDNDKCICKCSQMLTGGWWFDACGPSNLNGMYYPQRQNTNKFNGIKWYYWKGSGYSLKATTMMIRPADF
Method: as §1, §2, §3

[4] = target: T4, rhAngiopoietin-2 (R&D systems cat 623-AN/CF) (human, UniProt O15123 19-496, limits assumed); experiment: cell-based or functional assay
T4 sequence (looked up): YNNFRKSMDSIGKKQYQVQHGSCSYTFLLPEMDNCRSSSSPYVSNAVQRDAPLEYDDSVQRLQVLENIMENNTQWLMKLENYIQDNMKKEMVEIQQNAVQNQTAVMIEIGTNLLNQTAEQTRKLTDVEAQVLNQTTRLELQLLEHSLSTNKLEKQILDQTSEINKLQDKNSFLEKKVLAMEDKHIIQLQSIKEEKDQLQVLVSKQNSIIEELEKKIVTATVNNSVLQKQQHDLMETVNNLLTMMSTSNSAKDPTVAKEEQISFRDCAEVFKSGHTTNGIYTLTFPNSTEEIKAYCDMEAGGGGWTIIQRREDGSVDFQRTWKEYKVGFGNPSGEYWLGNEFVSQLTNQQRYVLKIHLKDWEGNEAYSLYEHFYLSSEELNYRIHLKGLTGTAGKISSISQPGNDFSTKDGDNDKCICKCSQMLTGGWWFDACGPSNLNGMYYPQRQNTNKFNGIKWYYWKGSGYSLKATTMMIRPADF

[5] = target: T5, rabbit ANGPT2 (rabbit, UniProt G1T9B3 275-496); experiment: SPR (ProteOn XPR36), antibody captured on Protein A/G, rabbit ANGPT2 as analyte
T5 construct: domain: FLD domain; also called rabbit ANGPT2 FLD domain
T5 sequence: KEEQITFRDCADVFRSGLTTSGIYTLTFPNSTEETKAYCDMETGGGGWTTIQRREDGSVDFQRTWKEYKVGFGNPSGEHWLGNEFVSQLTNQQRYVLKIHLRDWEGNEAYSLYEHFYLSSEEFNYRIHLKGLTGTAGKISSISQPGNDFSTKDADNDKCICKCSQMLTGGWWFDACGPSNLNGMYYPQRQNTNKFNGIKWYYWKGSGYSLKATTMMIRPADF
Method: as §1, with “vertically. […]” for “vertically.”

EC50 [1]: 13 nM
Kd [2]: 0.146 nM
koff [2]: 2.08e-05 s⁻¹
kon [2]: 142000 M⁻¹ s⁻¹
Kd [3]: 0.144 nM
koff [3]: 1.89e-05 s⁻¹
kon [3]: 132000 M⁻¹ s⁻¹
Tie2 phosphorylation functional assay, EC50 [4]: 4.2 nM and 4 nM
Kd [5]: 0.133 nM
B1: ANGPT2-opt-13 (humanized) (antibody, human IgG1, kappa, V domains shown)
VH: QVQLVQSGAEVKKPGSSVKVSCKASGYIFIDYFINWVRQAPGQGLEWMGKIGPGSGSSSSNEKFKGRVTITADKSTSTAYMELSSLRSEDTAVYYCAREAFDYDGDYYGMAYWGQGTLVTVSS
VL: EIVMTQSPATLSVSPGERATLSCKSSQSLLSSGNQKSFLAWYQQKPGQAPRLLIYGASTRETGIPARFSGSGSGTEFTLTISSLQSEDFAVYYCQNDHSYPITFGQGTKLEIKR
notes: also called Ang2-opt-13; ANGPT-opt-13

Reference: patent US20200407435A1 (Boehringer Ingelheim, published 2020)
